Assay results reported in patent US20250152742A1, “COMPOSITIONS AND METHODS FOR NEUROLOGICAL DISEASES” (Trames Bio, Inc., priority 2022, published 2025).

Tested on: engineered chimeric receptor SEQ ID NO: 33 and its mutants (human α7-nAChR ligand binding domain / human GlyRα1 ion pore domain) in Lenti-X 293T cells
Test: YFP fluorescence quenching anion reporter plate reader assay (percent quench, EC50)
Assay type: cell-based
Details: for YFP fluorescence quenching using CNL001 (percent quench): receptor named in row; for YFP fluorescence quenching using Varenicline, 3 nM var: ligand Varenicline 3 nM; for YFP fluorescence quenching using Varenicline, 30 nM var: ligand Varenicline 30 nM; for YFP fluorescence quenching using Varenicline, 300 nM var: ligand Varenicline 300 nM; for YFP fluorescence quenching using Varenicline, 500 nM var: ligand Varenicline 500 nM; for YFP fluorescence quenching using Varenicline, 1 uM var: ligand Varenicline 1 uM
How it was run: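 Lenti-X 293T cells co-expressing an anion-quenchable YFP were transiently transfected with receptor DNA, then ligand was added in NaI-substituted buffer (pH 7.2) after 30 min at 37 °C. Fluorescence was read about 2 min; percent quench = mean of last 10 s over 15 s pre-ligand baseline.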

[1] = 1 nM CNL001, first column so headed
[2] = 1 nM CNL001, second column so headed
[3] = 10 nM CNL001, first column so headed
[4] = 10 nM CNL001, second column so headed
[5] = 50 nM CNL001, first column so headed
[6] = 50 nM CNL001, second column so headed
[7] = 100 nM CNL001, first column so headed
[8] = 100 nM CNL001, second column so headed
[9] = 1 uM CNL001, first column so headed
[10] = 1 uM CNL001, second column so headed

| Molecule | YFP fluorescence quenching using CNL001 (percent quench) [1] | YFP fluorescence quenching using CNL001 (percent quench) [2] | YFP fluorescence quenching using CNL001 (percent quench) [3] | YFP fluorescence quenching using CNL001 (percent quench) [4] | YFP fluorescence quenching using CNL001 (percent quench) [5] | YFP fluorescence quenching using CNL001 (percent quench) [6] | YFP fluorescence quenching using ABT-126 (percent quench) (50 nM abt (ABT-126)) | YFP fluorescence quenching using CNL001 (percent quench) [7] | YFP fluorescence quenching using CNL001 (percent quench) [8] | YFP fluorescence quenching (percent quench) (100 nM CNL002) | YFP fluorescence quenching using ABT-126 (percent quench) (100 nM abt (ABT-126)) | YFP fluorescence quenching using ABT-126 (percent quench) (300 nM abt (ABT-126)) | YFP fluorescence quenching using CNL001 (percent quench) [9] | YFP fluorescence quenching using CNL001 (percent quench) [10] | YFP fluorescence quenching (percent quench) (1 uM CNL002) | YFP fluorescence quenching using ABT-126 (percent quench) (1 uM abt (ABT-126)) | YFP fluorescence quenching using ABT-126 (percent quench) (10 uM abt (ABT-126)) | YFP fluorescence quenching (percent quench) (1 mM ach (acetylcholine)) | YFP fluorescence quenching (percent quench) (3 mM ach (acetylcholine)) | YFP fluorescence quenching using Varenicline, 3 nM var (first column) | other results |
| --- | --- | --- | --- | --- | --- | --- | --- | --- | --- | --- | --- | --- | --- | --- | --- | --- | --- | --- | --- | --- | --- |
| CODA1157: engineered receptor: Q139E, S172D in SEQ ID NO: 33 (protein, synthetic sequence of chimeric LGIC) MRCSPGGVWLALAASLLHVSLQGEFQRKLYKELVKNYNPLERPVANDSQPLTVYFSLSLLQIMDVDEKNQVLTTNIWLQMSWTDHYLQWNVSEYPGVKTVRFPDGQIWKPDILLYNSADERFDATFHTNVLVNSSGHCEYLPPGIFKSSCPMDLKNFPMDVQTCKLKFGSWDYGGWSLDLQMQEADISGYIPNGEWDLVGIPGKRSERFYECCKEPYPDVTFTVTMRRRMGYYLIQMYIPSLLIVILSWISFWINMDAAPARVGLGITTVLTMTTQSSGSRASLPKVSYVKAIDIWMAVCLLFVFSALLEYAAVNFVSRQHKELLRFRRKRRHHKSPMLNLFQEDEAGEGRFNFSAYGMGPACLQAKDGISVKGANNSNTTNPPPAPSKSPEEMRKLFIQRAKKIDKISRIGFPMAFLIFNMFYWIIYKIVRREDVHNQ | 68.362% | 69.495% | 75.078% | 74.193% | 77.481% | 77.205% | −26.77% | 77% | 77.042% | 80.62% | −24.64% | −10.64% | 78.2% | 76.244% | 81.32% | 19.57% | 55.64% | 16.38% | 45.71% | −0.225 | YFP fluorescence quenching (percent quench) (10 uM ach (acetylcholine)): −36.89%; YFP fluorescence quenching (percent quench) (30 uM ach (acetylcholine)): −37.78%; YFP fluorescence quenching (percent quench) (100 uM ach (acetylcholine)): −25.67%; YFP fluorescence quenching (percent quench) (300 uM ach (acetylcholine)): −18.94%; YFP fluorescence quenching using Varenicline, 3 nM var (second column): −1.954; YFP fluorescence quenching using Varenicline, 30 nM var (first column): 1.269; YFP fluorescence quenching using Varenicline, 30 nM var (second column): 5.972; YFP fluorescence quenching using Varenicline, 300 nM var (first column): 6.84; YFP fluorescence quenching using Varenicline, 300 nM var (second column): 5.943; YFP fluorescence quenching using Varenicline, 500 nM var (first column): 8.717; YFP fluorescence quenching using Varenicline, 500 nM var (second column): 6.41; YFP fluorescence quenching using Varenicline, 1 uM var (first column): 5.635; YFP fluorescence quenching using Varenicline, 1 uM var (second column): 7.068 |
| CODA1173: engineered receptor: S172D, Y210W in SEQ ID NO: 33 (protein, synthetic sequence of chimeric LGIC) MRCSPGGVWLALAASLLHVSLQGEFQRKLYKELVKNYNPLERPVANDSQPLTVYFSLSLLQIMDVDEKNQVLTTNIWLQMSWTDHYLQWNVSEYPGVKTVRFPDGQIWKPDILLYNSADERFDATFHTNVLVNSSGHCQYLPPGIFKSSCPMDLKNFPMDVQTCKLKFGSWDYGGWSLDLQMQEADISGYIPNGEWDLVGIPGKRSERFWECCKEPYPDVTFTVTMRRRMGYYLIQMYIPSLLIVILSWISFWINMDAAPARVGLGITTVLTMTTQSSGSRASLPKVSYVKAIDIWMAVCLLFVFSALLEYAAVNFVSRQHKELLRFRRKRRHHKSPMLNLFQEDEAGEGRFNFSAYGMGPACLQAKDGISVKGANNSNTTNPPPAPSKSPEEMRKLFIQRAKKIDKISRIGFPMAFLIFNMFYWIIYKIVRREDVHNQ | 16.321% | 30.264% | 61.978% | 65.343% | 73.006% | 74.903% | 5.15% | 76% | 76.759% | 70.15% | 25.08% | 66.86% | 76.928% | 76.619% | 77.33% | 66.94% | 78.67% | −6.12% | 11.31% | 9.211 | YFP fluorescence quenching using Varenicline, 3 nM var (second column): 7.193; YFP fluorescence quenching using Varenicline, 30 nM var (first column): 7.821; YFP fluorescence quenching using Varenicline, 30 nM var (second column): 9.078; YFP fluorescence quenching using Varenicline, 300 nM var (first column): 6.933; YFP fluorescence quenching using Varenicline, 300 nM var (second column): 8.36; YFP fluorescence quenching using Varenicline, 500 nM var (first column): 5.501; YFP fluorescence quenching using Varenicline, 500 nM var (second column): 7.04; YFP fluorescence quenching using Varenicline, 1 uM var (first column): 7.174; YFP fluorescence quenching using Varenicline, 1 uM var (second column): 5.185 |
